Test results reported in the Immune Epitope Database (IEDB).

What was measured:
[1] = biological target: HLA-A*26:01; test: IEDB peptide-MHC binding, purified MHC/competitive/radioactivity; filed as Kd, often an IC50 or EC50 that approximates it; ≥ and ≤ were set here for values at or beyond the usual limits of such assays
[2] = biological target: HLA-A*23:01; test: as above
[3] = biological target: HLA-A*24:02; test: as above
[4] = biological target: HLA-A*29:02; test: as above
[5] = biological target: HLA-A*02:01; test: IEDB peptide-MHC binding, purified MHC/competitive/fluorescence; ≥ and ≤ were set here for values at or beyond the usual limits of such assays
[6] = biological target: HLA-A*02:01; test: IEDB peptide-MHC binding, purified MHC/direct/fluorescence; filed as Kd, often an IC50 or EC50 that approximates it; ≥ and ≤ were set here for values at or beyond the usual limits of such assays
[7] = biological target: HLA-A*01:01; test: IEDB peptide-MHC binding, purified MHC/competitive/radioactivity; filed as Kd, often an IC50 or EC50 that approximates it; ≥ and ≤ were set here for values at or beyond the usual limits of such assays
[8] = biological target: HLA-A*03:01; test: IEDB peptide-MHC binding, purified MHC/direct/fluorescence; filed as Kd, often an IC50 or EC50 that approximates it; ≥ and ≤ were set here for values at or beyond the usual limits of such assays
[9] = biological target: HLA-A*30:02; test: IEDB peptide-MHC binding, purified MHC/competitive/radioactivity; filed as Kd, often an IC50 or EC50 that approximates it; ≥ and ≤ were set here for values at or beyond the usual limits of such assays
[10] = biological target: HLA-A*02:02; test: as above
[11] = biological target: HLA-A*02:03; test: as above
[12] = biological target: HLA-A*02:06; test: as above
[13] = biological target: HLA-B*58:01; test: IEDB peptide-MHC binding, purified MHC/direct/fluorescence; filed as Kd, often an IC50 or EC50 that approximates it; ≥ and ≤ were set here for values at or beyond the usual limits of such assays; conditions: source organism: Mycobacterium tuberculosis
[14] = source organism: Mammarenavirus brazilense
[15] = source organism: Dengue virus 3 Martinique/1243/1999
[16] = source organism: Dengue virus 4 Philippines/H241/1956
[17] = source organism: Dengue virus 1 Brazil/97-11/1997
[18] = source organism: Zaire ebolavirus
[19] = source organism: Vaccinia virus WR
[20] = source organism: Dengue virus 2 Jamaica/1409/1983
[21] = source organism: SARS coronavirus Tor2
[22] = source organism: Lassa virus Josiah
[23] = source organism: Mammarenavirus guanaritoense

STITLLCLI showed a Kd ([1]; source organism: Dengue virus 4 Dominica/814669/1981) of 867 nM.

Work on SFYCDPKRYF yielded a Kd [2, 14] of 84.6 nM, a Kd [3, 14] of 443 nM and a Kd [4, 14] of 29.4 nM.

In the case of KYTDRKWCF, the Kd [2, 15] is reported as 180 nM and the Kd [3, 15] is reported as 138 nM.

VFGSVYTTMF gave a Kd [2, 16] of 57.3 nM and a Kd [3, 16] of 1170 nM.

For LAYVVIGLLF, the Kd [2, 17] was 36.4 nM.

Work on DTVTYECPL yielded a Kd [1, 16] of 6130 nM.

RLDDDGNFQL showed an IC50 ([5]; source organism: West Nile virus NY-99) of 847 nM.

HLTTLATIS was tested, and the IC50 [5, 18] was 69800 nM.

In the case of ILDGKNCTL, the Kd ([6]; source organism: Influenza A virus (A/turkey/Canada-Ontario/NS-01839-1/05(H3))) is reported as 95.1 nM.

ETEPPFGESY was tested, and the Kd [7, 17] was 5.28 nM and the Kd [1, 17] was 134 nM.

In the case of PYMPTVIEHL, the Kd [2, 15] is reported as 43.4 nM and the Kd [3, 15] is reported as 46.2 nM.

Sequence YNIDKIKDV has an IC50 ([5]; source organism: Vaccinia virus) of 9180 nM.

FMWAHPGKK gave a Kd ([8]; source organism: Corynebacterium jeikeium) of 39 nM.

With GVPLLAMGCY the Kd [9, 16] was 105 nM.

Sequence NLTIAWPRM has an IC50 ([5]; source organism: Human alphaherpesvirus 1 strain 17) of no less than 50000 nM.

GMMQNDYGGM was tested, and the Kd [10, 19] was 103 nM, the Kd [11, 19] was 589 nM and the Kd [12, 19] was 12000 nM.

MSYTMCSGKF was tested, and the Kd [7, 16] was 7720 nM, the Kd [1, 16] was 1510 nM and the Kd [9, 16] was 81.8 nM.

For LYAVATTFVT, the Kd [3, 20] was 550 nM.

KATLTEGVY gave a Kd [9, 16] of 40.1 nM.

Sequence AYSLTLQGL has a Kd ([3]; source organism: Homo sapiens) of 45 nM.

In the case of AIKQYGDIDL, the Kd [10, 19] is reported as no less than 23400 nM, the Kd [11, 19] is reported as no less than 46400 nM and the Kd [12, 19] is reported as no less than 69800 nM.

For TTLLNETAKV, the Kd [10, 19] was 1640 nM, the Kd [11, 19] was 0.17 nM and the Kd [12, 19] was 1650 nM.

With SLFNRGRLK the Kd ([8]; source organism: Mammarenavirus juninense) was 42.4 nM.

RSTYRLDGW showed a Kd [13] of 45.3 nM.

EFFLIVLLI showed a Kd [3, 20] of 3050 nM.

Work on ILDNAAKYV yielded a Kd [10, 19] of 126 nM, a Kd [11, 19] of 261 nM and a Kd [12, 19] of 1810 nM.

In the case of VFGTAYGVLF, the Kd [2, 17] is reported as 34.4 nM and the Kd [3, 17] is reported as 73.7 nM.

With FLAFVVFLL the Kd [10, 21] was 0.411 nM, the Kd [11, 21] was 87.9 nM and the Kd [12, 21] was 2.57 nM.

AYVNQAHHI showed a Kd [2, 14] of 47.6 nM, a Kd [3, 14] of 66.2 nM and a Kd [4, 14] of no less than 73300 nM.

VIDLEPISY was tested, and the Kd [7, 16] was 51.7 nM.

Sequence ATGFGTNET has an IC50 [5, 18] of no less than 393000 nM.

With ILWDYFSLV the Kd ([6]; source organism: Mammarenavirus amapariense) was 0.2 nM.

For GAFMYTKHSM, the Kd [10, 19] was 544 nM, the Kd [11, 19] was 458 nM and the Kd [12, 19] was 3140 nM.

In the case of PTRTWKVLSI, the Kd [10, 19] is reported as no less than 41900 nM, the Kd [11, 19] is reported as 15100 nM and the Kd [12, 19] is reported as no less than 69800 nM.

For KNATWCLEV, the Kd [10, 14] was 1610 nM, the Kd [11, 14] was 7010 nM and the Kd [12, 14] was 2310 nM.

LIGNENYLDY showed a Kd [7, 17] of 6080 nM.

In the case of SKKEGGAMY, the Kd [9, 20] is reported as no less than 76900 nM.

Work on VHTWTEQYKF yielded a Kd [2, 20] of 889 nM and a Kd [3, 20] of 3780 nM.

DTIETLMLL was tested, and the Kd [1, 17] was 141 nM.

For SWILRNPGF, the Kd [2, 16] was 496 nM and the Kd [3, 16] was 369 nM.

Sequence SGLLIVKTV has an IC50 [5, 18] of 2290 nM.

Sequence ISYKDREWCF has a Kd [3, 16] of 1020 nM.

In the case of DTITYKCPL, the Kd [1, 20] is reported as 3380 nM.

SLVITYCLV was tested, and the Kd [10, 19] was 1690 nM, the Kd [11, 19] was 201 nM and the Kd [12, 19] was 269 nM.

With NLYISDYKML the Kd [10, 19] was 1250 nM, the Kd [11, 19] was 1830 nM and the Kd [12, 19] was no less than 36000 nM.

KTEHCDDFMT gave a Kd [10, 19] of 7820 nM, a Kd [11, 19] of no less than 37700 nM and a Kd [12, 19] of 11600 nM.

ALEPRKEIDV gave a Kd [10, 19] of 8370 nM, a Kd [11, 19] of 11200 nM and a Kd [12, 19] of no less than 63300 nM.

QVKELGIAI was tested, and the Kd [10, 19] was 9050 nM, the Kd [11, 19] was 882 nM and the Kd [12, 19] was 3710 nM.

In the case of LNISGYNFSL, the Kd [10, 22] is reported as 15.5 nM, the Kd [11, 22] is reported as 4550 nM and the Kd [12, 22] is reported as 420 nM.

GYCLTRWMLI gave a Kd [2, 22] of 242 nM, a Kd [3, 22] of 1100 nM and a Kd [4, 22] of 12200 nM.

LVIGFLFLA showed a Kd [10, 21] of 7.38 nM, a Kd [11, 21] of 19.6 nM and a Kd [12, 21] of no more than 0.1 nM.

With TWMDLLRALI the Kd [2, 16] was 21.7 nM and the Kd [3, 16] was 128 nM.

Work on IILFQKAFS yielded an IC50 ([5]; source organism: Sudan ebolavirus) of 67700 nM.

VFHELPSLC was tested, and the Kd [7, 23] was no less than 78100 nM and the Kd [1, 23] was no less than 77900 nM.
